US20190119389A1 (POTENZA THERAPEUTICS, published 2019)
Where a chain is given by its changes, count along the chain named. Names and notes keep the numbering of the source.

T1: Cyno NRP-1 His (cynomolgus monkey, UniProt O14786 22-856 (human entry), limits assumed)
T1 construct: Recombinant monomeric protein; also called cynomolgus monkey NRP-1-His; cNRP-1; not shown: His tag
T1 chain: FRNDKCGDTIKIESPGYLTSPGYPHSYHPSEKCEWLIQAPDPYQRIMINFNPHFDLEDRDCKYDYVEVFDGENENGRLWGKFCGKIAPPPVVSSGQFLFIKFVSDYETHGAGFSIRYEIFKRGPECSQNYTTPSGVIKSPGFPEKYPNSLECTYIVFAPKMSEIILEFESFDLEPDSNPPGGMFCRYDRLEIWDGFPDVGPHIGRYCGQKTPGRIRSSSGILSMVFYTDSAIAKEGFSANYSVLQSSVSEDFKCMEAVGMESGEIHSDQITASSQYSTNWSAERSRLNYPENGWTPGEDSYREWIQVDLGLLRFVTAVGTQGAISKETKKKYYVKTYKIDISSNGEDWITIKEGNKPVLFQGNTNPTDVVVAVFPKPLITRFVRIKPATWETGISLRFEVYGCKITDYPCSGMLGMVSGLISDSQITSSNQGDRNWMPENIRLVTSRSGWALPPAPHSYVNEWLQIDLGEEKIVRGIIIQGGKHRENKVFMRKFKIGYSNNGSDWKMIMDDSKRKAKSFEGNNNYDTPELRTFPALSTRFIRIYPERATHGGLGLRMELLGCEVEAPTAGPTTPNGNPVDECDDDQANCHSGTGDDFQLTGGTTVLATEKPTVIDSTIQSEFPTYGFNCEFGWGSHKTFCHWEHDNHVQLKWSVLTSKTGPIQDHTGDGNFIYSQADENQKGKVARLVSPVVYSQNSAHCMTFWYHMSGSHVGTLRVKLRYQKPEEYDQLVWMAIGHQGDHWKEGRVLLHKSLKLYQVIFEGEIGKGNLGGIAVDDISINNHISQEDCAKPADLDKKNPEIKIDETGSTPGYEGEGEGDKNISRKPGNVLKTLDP

B1: anti-NRP Antibody SEC10 (antibody, human IgG1, kappa, V domains shown)
VH: EVQLVESGGGLVQPGGSLRLSCAASGFTFSSYAMSWVRQAPGKGLEWVSQISPAGGYTNYADSVKGRFTISADTSKNTAYLQMNSLRAEDTAVYYCARGELPYYRMSKVMDVWGQGTLVTVSS
VL: DIQMTQSPSSLSASVGDRVTITCRASQYFSSYLAWYQQKPGKAPKLLIYGASSRASGVPSRFSGSGSGTDFTLTISSLQPEDFATYYCQQYLGSPPTFGQGTKVEIKR
B2: MAB10 (antibody, V domains shown)
VH: EVQLLESGGGLVQPGGSLRLSCAASGFTFSSVAMVWVRQAPGKGLEWVSAISGSGGATYYADSVKGRFTISRDNSKNTLYLQMNSLRAEDTAVYYCAKDPGYDSSRYYYSNYGMDVWGQGTTVTVSS
VL: DIQMTQSPSSLSASVGDRVTITCRASQSISSYLNWYQQKPGKAPKLLIYGASSLQSGVPSRFSGSGSGTDFTLTISSLQPEDFATYYCQQTYSLYTFGGGTKVEIK
B3: MAB8 (antibody, V domains shown)
VH: B2 VH with S30A, V32Y, A50I, A57S
VL: B2 VL
B4: MAB9 (antibody, V domains shown)
VH: B2 VH with S30K, V32Y, A50I
VL: B2 VL
B5: MAB11 (antibody, V domains shown)
VH: B2 VH with K65E, N84S
VL: B2 VL
B6: MAB7 (antibody, V domains shown)
VH: EVQLVESGGGLVQPGGSLRLSCAASGFTFSSYWMEWVRQAPGKGLEWVARIKRDGSEKYYVDSVKGRFTISRDNAKNSLYLQMNSLRAEDTAVYYCARDQGYKTPTDFDLWGRGTLVTVSS
VL: DIQMTQSPSSLSASVGDRVTITCQASQDITNYLNWYQQKPGKAPKLLIYDASNLETGVPSRFSGSGSGTDFTFTISSLQPEDIATYYCQQSDVLPITFGGGTKVEIK
B7: MAB6 (antibody, V domains shown)
VH: QVQLVQSGAKVKKPGASVKVSCKASGYTFTSYYMHWVRQVPGQGLEWMGIINPQGGDTSYAQKFQGRVTMTRDTSTSTVYMELSSLRSEDTAVYYCARDRGMYYASGFNPWGQGTLVTVSS
VL: EIVMTQSPGTLSLSPGERATLSCRASQSVSSSYLAWYQQKPGQAPRLLIYGASNRATGIPDRFSGSGSGTDFTLTISRLEPEDFAVYYCQQLSSFPITFGGGTKVEIK
B8: MAB12 IgG4 S228P (antibody, V domains shown)
VH: B2 VH with K65E
VL: DIQMTQSPSSLSASVGDRVTITCRASQSISSYLNWYQQKPGKAPKLLIYGASSLQSGVPSRFSGSGSGTDFTLTISSLQPEDFATYYCQQTYSLYTFGGGTKVEIKR
B9: MAB2 IgG4 S228P (antibody, V domains shown)
VH: QVQLVQSGAEVKKPGASVKVSCKASGYTFRSYYMLWVRQAPGQGLEWMGIIDPSDGSTSYAQKFQGRVTMTRDASTSTVYMELSSLRSEDTAVYYCARGARRITGYGMDVWGQGTTVIVSS
VL: DIQMTQSPSSVSASVGDRVTITCRASQGISSWLAWYQQKPGKAPKLLIYAASNLQSGVPSRFSGSGSGTDFTLTISSLQPEDFATYYCQQASVFPFTFGGGTKVEIKR
B10: MAB3 IgG4 S228P (antibody, V domains shown)
VH: QAQLVQSGAEVKKPGASVKVSCKASGYTFSRYYMHWVRQAPGQGLEWMGIINPLGGSTLYAQKFQGRVTMTRDTSTSTVYMELSSLRSEDTAVYYCARDLGYYGSGMHAWGQGTLVTVSS
VL: B9 VL with S31R, N53S, S92N, V93L, F94L
B11: MAB13 IgG4 S228P (antibody, V domains shown)
VH: QVQLQQWGAGLLKPSETLSLTCAVYGGSFRGYYWEWIRQPPGKGLEWIGEISHSGSTNYNPSLKSRVTISVDTSKNQFSLKLSSVTAADTAVYYCARARPYREPYGMDVWGQGTTVTVSS
VL: B9 VL with M4L, G28D, N53S, A91E, S92L, V93A, F96R
B12: MAB4 IgG4 S228P (antibody, V domains shown)
VH: B10 VH with A2V, A109V
VL: B9 VL with S31R, N53S, S92N, V93L, F94L
B13: MAB14 IgG4 S228P (antibody, V domains shown)
VH: B11 VH with I37S, S84P
VL: B9 VL with M4L, G28D, N53S, A91E, S92L, V93A, F96R
B14: MAB5 IgG4 S228P (antibody, V domains shown)
VH: B7 VH with K10E, V40A, N109G
VL: EIVMTQSPGTLSLSPGERATLSCRASQSVSSSYLAWYQQKPGQAPRLLIYGASNRATGIPDRFSGSGSGTDFTLTISRLEPEDFAVYYCQQLSSFPITFGGGTKVEIKR

Target: T2, Recombinant human NRP-1-Fc fusion protein, a2b1b2 domains (human, UniProt O14786 147-583, limits assumed)
T2 construct: Only the named domains of hNRP-1 are in the construct; not shown: Fc
T2 sequence (O14786 147-583 V179A limits assumed): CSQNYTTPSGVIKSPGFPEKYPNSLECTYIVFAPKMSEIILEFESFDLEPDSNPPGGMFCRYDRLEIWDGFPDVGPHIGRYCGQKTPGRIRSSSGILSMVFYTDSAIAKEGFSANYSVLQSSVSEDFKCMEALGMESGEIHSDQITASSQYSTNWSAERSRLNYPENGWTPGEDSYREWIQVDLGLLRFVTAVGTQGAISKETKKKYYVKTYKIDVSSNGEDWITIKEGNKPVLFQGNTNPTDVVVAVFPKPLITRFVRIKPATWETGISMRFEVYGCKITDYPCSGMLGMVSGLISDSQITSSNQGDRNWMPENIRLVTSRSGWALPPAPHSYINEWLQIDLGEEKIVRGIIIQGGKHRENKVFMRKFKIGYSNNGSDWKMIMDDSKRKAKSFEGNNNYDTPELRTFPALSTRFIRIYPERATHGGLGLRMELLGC
Assay: BLI Octet QKe, antibody on AHC sensor, NRP-1-Fc fragment 500 nM

| binding result | Binder |
| --- | --- |
| binds | B1 |

Target: T3, Recombinant human NRP-1-Fc fusion protein, a1a2b1b2 domains (human, UniProt O14786 22-583, limits assumed)
T3 construct: Only the named domains of hNRP-1 are in the construct; not shown: Fc
Assay: as above

| binding result | Binder |
| --- | --- |
| binds | B1 |

Target: T4, Human NRP-1 His (human, UniProt O14786 22-856)
T4 construct: Recombinant monomeric protein; Biotinylated in the MSD-SET assay; also called hNRP-1; not shown: His tag
T4 sequence (O14786 22-856 V179A limits assumed): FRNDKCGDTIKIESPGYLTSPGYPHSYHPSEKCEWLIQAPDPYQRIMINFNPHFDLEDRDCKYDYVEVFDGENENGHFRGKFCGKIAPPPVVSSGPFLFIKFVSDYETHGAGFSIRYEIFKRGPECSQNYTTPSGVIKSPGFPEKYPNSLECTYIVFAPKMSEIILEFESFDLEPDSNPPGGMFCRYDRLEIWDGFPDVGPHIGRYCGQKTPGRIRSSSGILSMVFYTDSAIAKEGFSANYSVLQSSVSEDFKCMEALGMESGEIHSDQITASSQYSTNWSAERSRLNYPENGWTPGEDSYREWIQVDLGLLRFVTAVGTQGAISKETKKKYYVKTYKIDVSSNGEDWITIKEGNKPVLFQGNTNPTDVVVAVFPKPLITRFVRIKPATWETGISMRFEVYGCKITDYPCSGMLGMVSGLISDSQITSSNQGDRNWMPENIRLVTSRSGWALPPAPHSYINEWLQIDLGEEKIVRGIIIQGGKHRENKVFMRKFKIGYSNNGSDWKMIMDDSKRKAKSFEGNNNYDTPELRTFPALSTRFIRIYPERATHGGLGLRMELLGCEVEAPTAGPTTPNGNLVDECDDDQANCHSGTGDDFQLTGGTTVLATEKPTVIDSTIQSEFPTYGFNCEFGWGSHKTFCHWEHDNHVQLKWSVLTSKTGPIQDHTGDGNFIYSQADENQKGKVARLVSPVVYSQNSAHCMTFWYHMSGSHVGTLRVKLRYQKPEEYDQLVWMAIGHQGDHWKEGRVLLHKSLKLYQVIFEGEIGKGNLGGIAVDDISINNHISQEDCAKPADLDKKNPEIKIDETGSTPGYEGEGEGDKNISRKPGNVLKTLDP
Assay: BLI ForteBio, IgG1 N297A on AHQ sensor, 100 nM monomeric antigen, 1:1 fit

| Kd | Binder |
| --- | --- |
| 0.868 nM | B2 |
| 0.613 nM | B3 |
| 0.645 nM | B4 |
| 0.485 nM | B5 |
| 11.2 nM | B6 |
| 4.72 nM | B7 |

Target: T1, Cyno NRP-1 His
Assay: as above

| Kd | Binder |
| --- | --- |
| 0.866 nM | B2 |
| 0.642 nM | B3 |
| 0.643 nM | B4 |
| 0.48 nM | B5 |
| 10.9 nM | B6 |
| 5.54 nM | B7 |

Target: T5, Mouse NRP-1 His (mouse, UniProt P97333 22-856)
T5 construct: Recombinant monomeric protein; also called mNRP-1; not shown: His tag
T5 sequence (P97333 22-856 limits assumed): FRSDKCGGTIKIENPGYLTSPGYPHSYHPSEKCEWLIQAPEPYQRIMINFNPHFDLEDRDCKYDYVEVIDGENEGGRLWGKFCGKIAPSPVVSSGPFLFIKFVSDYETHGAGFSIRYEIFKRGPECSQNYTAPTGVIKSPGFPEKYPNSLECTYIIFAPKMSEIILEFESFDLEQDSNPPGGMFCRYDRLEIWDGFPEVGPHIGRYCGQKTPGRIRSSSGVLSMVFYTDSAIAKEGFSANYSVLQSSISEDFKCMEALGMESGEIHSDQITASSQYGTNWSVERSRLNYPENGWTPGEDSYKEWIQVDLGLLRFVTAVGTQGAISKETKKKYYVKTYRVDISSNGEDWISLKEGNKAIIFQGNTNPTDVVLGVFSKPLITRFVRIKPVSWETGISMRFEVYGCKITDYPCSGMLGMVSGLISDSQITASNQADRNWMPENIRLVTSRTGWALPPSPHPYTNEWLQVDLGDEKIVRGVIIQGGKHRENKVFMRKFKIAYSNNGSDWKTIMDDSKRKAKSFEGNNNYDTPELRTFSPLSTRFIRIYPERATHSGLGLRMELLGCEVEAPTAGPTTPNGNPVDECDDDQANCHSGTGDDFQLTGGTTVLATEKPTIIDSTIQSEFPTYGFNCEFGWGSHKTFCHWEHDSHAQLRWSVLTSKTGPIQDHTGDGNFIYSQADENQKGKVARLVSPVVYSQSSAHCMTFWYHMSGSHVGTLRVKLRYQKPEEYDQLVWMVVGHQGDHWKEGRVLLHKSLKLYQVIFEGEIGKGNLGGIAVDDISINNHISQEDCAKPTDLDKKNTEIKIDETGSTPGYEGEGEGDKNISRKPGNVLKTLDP
Assay: as above

| Kd | Binder |
| --- | --- |
| 0.746 nM | B2 |
| 0.552 nM | B3 |
| 0.566 nM | B4 |
| 0.446 nM | B5 |
| 14.7 nM | B6 |
| 6.98 nM | B7 |

Target: T6, recombinant human NRP-1 (human, UniProt O14786 22-856, limits assumed)
T6 construct: also called biotinylated human NRP-1
Assay: blocking ELISA: human NRP-1 coated, VEGFA added with IgG1 antibody; competitor VEGFA
Target sequence in this assay (O14786 22-856 V179A limits assumed): as the sequence (O14786 22-856 V179A limits assumed) above

| IC50 | Binder |
| --- | --- |
| 6.7 nM | B2 |
| 7.3 nM | B3 |
| 6.5 nM | B4 |
| 5.9 nM | B5 |
| 6.9 nM | B6 |
| 7.4 nM | B7 |

Target: T4, Human NRP-1 His
Assay: BLI Octet QKe, IgG4 S228P on AHC sensor, multi-concentration monomeric antigen, global 1:1 fit

| Kd | Binder |
| --- | --- |
| 0.12 nM | B8 |
| 2.4 nM | B9 |
| 3.7 nM | B10 |
| 0.96 nM | B11 |
| 3.1 nM | B12 |
| 0.87 nM | B13 |
| 8.4 nM | B14 |

Target: T1, Cyno NRP-1 His
Assay: as above

| Kd | Binder |
| --- | --- |
| 0.19 nM | B8 |
| 4.5 nM | B9 |
| 7.3 nM | B10 |
| 0.94 nM | B11 |
| 4.5 nM | B12 |
| 0.74 nM | B13 |
| 12 nM | B14 |

Target: T5, Mouse NRP-1 His
Assay: as above

| Kd | Binder |
| --- | --- |
| 0.16 nM | B8 |
| 5.1 nM | B9 |
| 4.4 nM | B10 |
| 3.7 nM | B11 |
| 2.3 nM | B12 |
| 2.7 nM | B13 |
| 6.6 nM | B14 |

Target: T6, recombinant human NRP-1
Assay: blocking ELISA, average of n=2: human NRP-1 coated, VEGFA added with IgG4 antibody; competitor VEGFA

| IC50 | Binder |
| --- | --- |
| 3.2 nM | B8 |
| 2.9 nM | B11 |
| 2.5 nM | B13 |

Target: T6, recombinant human NRP-1
Assay: blocking ELISA: SEMA3A coated, biotinylated human NRP-1 preincubated with IgG1 antibody; competitor SEMA3A
Target sequence in this assay (O14786 22-856 V179A limits assumed): as above

| IC50 | Binder |
| --- | --- |
| 1.5 nM | B2 |
| 2 nM | B3 |
| 1.8 nM | B4 |
| 0.8 nM | B5 |
| 1.7 nM | B6 |
| 1.8 nM | B7 |

Target: T6, recombinant human NRP-1
Assay: blocking ELISA, average of n=2: SEMA3A coated, biotinylated human NRP-1 preincubated with IgG4 antibody; competitor SEMA3A
Target sequence in this assay (O14786 22-856 V179A limits assumed): as above

| IC50 | Binder |
| --- | --- |
| 1.2 nM | B8 |
| 2.6 nM | B9 |
| 2 nM | B10 |
| 0.9 nM | B11 |
| 2.3 nM | B12 |
| 0.6 nM | B13 |
| 2.9 nM | B14 |
